Literature values, collected in PMC8776070.

How the values were obtained:
CXCR2 (Homo sapiens) = CXCR2 (Homo sapiens) (UniProt P25025)
ACKR1 (Homo sapiens) = ACKR1 (Homo sapiens) (UniProt Q16570)
CXCR1 (Homo sapiens) = CXCR1 (Homo sapiens) (UniProt P25024)
Sequence of UniProt P25024 (P25024 whole entry): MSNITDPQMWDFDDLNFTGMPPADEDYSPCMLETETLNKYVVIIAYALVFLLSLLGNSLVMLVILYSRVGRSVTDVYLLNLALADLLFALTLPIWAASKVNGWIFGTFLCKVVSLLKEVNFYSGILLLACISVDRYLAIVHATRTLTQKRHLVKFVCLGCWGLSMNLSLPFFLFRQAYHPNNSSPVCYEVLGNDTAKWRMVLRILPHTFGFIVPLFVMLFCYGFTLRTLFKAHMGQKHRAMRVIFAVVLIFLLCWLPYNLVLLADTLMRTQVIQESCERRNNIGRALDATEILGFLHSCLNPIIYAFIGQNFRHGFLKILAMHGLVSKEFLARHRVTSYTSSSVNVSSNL

Sequence of UniProt P25025 (P25025 whole entry): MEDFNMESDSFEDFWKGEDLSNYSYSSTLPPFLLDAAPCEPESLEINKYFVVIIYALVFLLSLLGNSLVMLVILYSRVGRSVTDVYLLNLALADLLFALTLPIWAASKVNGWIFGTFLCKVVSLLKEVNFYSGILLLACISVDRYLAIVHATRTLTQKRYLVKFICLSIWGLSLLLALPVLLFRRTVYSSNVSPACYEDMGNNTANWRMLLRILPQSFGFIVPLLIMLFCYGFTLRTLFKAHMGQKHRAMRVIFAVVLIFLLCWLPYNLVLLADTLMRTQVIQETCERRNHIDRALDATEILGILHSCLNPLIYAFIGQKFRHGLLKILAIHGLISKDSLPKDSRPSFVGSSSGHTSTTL
Sequence of UniProt Q16570 (Q16570 whole entry): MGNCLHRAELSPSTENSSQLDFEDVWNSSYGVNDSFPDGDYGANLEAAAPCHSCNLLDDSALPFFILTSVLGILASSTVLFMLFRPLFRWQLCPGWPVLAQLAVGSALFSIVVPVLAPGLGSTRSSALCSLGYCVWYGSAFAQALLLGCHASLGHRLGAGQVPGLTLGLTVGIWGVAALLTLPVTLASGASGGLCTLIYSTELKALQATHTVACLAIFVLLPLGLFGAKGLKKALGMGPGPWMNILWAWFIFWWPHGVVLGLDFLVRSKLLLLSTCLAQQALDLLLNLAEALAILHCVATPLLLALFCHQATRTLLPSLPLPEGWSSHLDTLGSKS

Kd (CXCR2 (Homo sapiens)): 3 nM | Kd (ACKR1 (Homo sapiens)): 1.81 nM | Kd (CXCR1 (Homo sapiens)): 300 nM
Substance: CXCL1 (from UniProt P09341)
